Numbered stars: 1 amine (or outer) side, 2 acyl side, 3 side chain; on linkers, the order of the positions; unused ones are H or OH. Bridge positions count the residues as written; N and C are the ends. Side chains are listed from the residue outwards. Ends that are not written are not given here. * marks the point of attachment. C20 diacid = O=C(O)CCCCCCCCCCCCCCCCCCC(=O)*; γGlu = O=C(O)[C@H](CCC(=O)[*:2])N[*:1]; AEEA = NCCOCCOCC(=O)O
T1: rat calcitonin receptor (rat, UniProt P32214 25-516)
T1 construct: whole, on cells; Membranes prepared from transiently transfected BHK tk'ts 13 cells (Assay VIII); also called rCTR; rCT
T1 sequence (looked up): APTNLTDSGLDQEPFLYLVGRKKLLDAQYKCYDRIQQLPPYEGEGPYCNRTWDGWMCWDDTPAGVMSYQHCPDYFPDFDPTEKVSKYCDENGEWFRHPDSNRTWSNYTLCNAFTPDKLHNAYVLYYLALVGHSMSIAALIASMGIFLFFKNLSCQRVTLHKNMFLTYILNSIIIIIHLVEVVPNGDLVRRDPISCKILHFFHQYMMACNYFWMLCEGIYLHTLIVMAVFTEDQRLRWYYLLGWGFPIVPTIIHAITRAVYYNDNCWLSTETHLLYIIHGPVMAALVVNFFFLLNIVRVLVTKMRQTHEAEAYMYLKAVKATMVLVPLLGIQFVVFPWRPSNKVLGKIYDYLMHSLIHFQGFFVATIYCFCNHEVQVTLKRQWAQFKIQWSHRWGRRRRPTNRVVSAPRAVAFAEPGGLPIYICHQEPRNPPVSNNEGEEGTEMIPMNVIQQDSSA

T2: human calcitonin receptor (human, UniProt P30988 25-474)
T2 construct: whole, on cells; Membranes prepared from a stably transfected BHK cell line (Assay VII); also called hCTR; hCT
T2 sequence (looked up): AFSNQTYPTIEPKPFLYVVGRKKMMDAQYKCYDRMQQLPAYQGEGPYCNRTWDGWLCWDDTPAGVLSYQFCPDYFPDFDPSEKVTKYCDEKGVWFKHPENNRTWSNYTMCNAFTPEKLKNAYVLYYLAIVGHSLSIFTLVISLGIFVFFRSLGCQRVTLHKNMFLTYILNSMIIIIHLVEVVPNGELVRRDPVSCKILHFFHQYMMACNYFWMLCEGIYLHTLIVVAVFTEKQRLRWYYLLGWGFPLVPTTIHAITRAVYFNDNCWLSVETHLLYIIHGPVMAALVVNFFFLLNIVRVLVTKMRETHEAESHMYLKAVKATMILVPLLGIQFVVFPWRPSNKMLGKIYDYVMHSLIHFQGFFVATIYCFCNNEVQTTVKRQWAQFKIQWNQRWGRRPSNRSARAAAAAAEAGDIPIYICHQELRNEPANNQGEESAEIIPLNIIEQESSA

T3: rat amylin receptor (rat calcitonin receptor + rat RAMP 3) (rat, UniProt P32214 25-516; Q9JJ73 23-147)
T3 construct: whole, on cells; Membranes prepared from transiently transfected BHK tk'ts 13 cells (Assay VI); also called rAmylin-R; rAmylin
T3 sequence (looked up) 1: T1 sequence (looked up)
T3 sequence (looked up) 2: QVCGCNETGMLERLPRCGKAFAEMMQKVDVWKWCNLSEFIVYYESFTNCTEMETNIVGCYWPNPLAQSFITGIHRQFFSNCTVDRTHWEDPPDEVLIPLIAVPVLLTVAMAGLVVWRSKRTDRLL

B1: N^ε1-[2-[2-[2-[[(4S)-4-carboxy-4-(19-carboxynonadecanoylamino)butanoyl]amino]ethoxy]ethoxy]acetyl]-[His14,Arg17,Pro21,Pro27,Arg34]-h-amylin (peptide)
peptide: K([AEEA-γGlu-C20 diacid])CNTATCATQRLAHFLRHSSPNFGAIPSSTNVGRNTY-NH2
modifications: disulfide 2-7; N-terminus assumed
SMILES: CC[C@H](C)[C@H](NC(=O)[C@H](C)NC(=O)CNC(=O)[C@H](Cc1ccccc1)NC(=O)[C@H](CC(N)=O)NC(=O)[C@@H]1CCCN1C(=O)[C@H](CO)NC(=O)[C@H](CO)NC(=O)[C@H](Cc1c[nH]cn1)NC(=O)[C@H](CCCNC(=N)N)NC(=O)[C@H](CC(C)C)NC(=O)[C@H](Cc1ccccc1)NC(=O)[C@H](Cc1c[nH]cn1)NC(=O)[C@H](C)NC(=O)[C@H](CC(C)C)NC(=O)[C@H](CCCNC(=N)N)NC(=O)[C@H](CCC(N)=O)NC(=O)[C@@H](NC(=O)[C@H](C)NC(=O)[C@@H]1CSSC[C@H](NC(=O)[C@@H](N)CCCCNC(=O)COCCOCCNC(=O)CC[C@H](NC(=O)CCCCCCCCCCCCCCCCCCC(=O)O)C(=O)O)C(=O)N[C@@H](CC(N)=O)C(=O)N[C@@H]([C@@H](C)O)C(=O)N[C@@H](C)C(=O)N[C@@H]([C@@H](C)O)C(=O)N1)[C@@H](C)O)C(=O)N1CCC[C@H]1C(=O)N[C@@H](CO)C(=O)N[C@@H](CO)C(=O)N[C@H](C(=O)N[C@@H](CC(N)=O)C(=O)N[C@H](C(=O)NCC(=O)N[C@@H](CCCNC(=N)N)C(=O)N[C@@H](CC(N)=O)C(=O)N[C@H](C(=O)N[C@@H](Cc1ccc(O)cc1)C(N)=O)[C@@H](C)O)C(C)C)[C@@H](C)O
notes: Analogue of human amylin; also called compound 84
B2: N^ε1-[2-[2-[2-[[(4S)-4-carboxy-4-(19-carboxynonadecanoylamino)butanoyl]amino]ethoxy]ethoxy]acetyl]-[His14,Arg17,Pro21,Pro27,His34]-h-amylin (peptide)
peptide: K([AEEA-γGlu-C20 diacid])CNTATCATQRLAHFLRHSSPNFGAIPSSTNVGHNTY-NH2
modifications: disulfide 2-7; N-terminus assumed
SMILES: CC[C@H](C)[C@H](NC(=O)[C@H](C)NC(=O)CNC(=O)[C@H](Cc1ccccc1)NC(=O)[C@H](CC(N)=O)NC(=O)[C@@H]1CCCN1C(=O)[C@H](CO)NC(=O)[C@H](CO)NC(=O)[C@H](Cc1c[nH]cn1)NC(=O)[C@H](CCCNC(=N)N)NC(=O)[C@H](CC(C)C)NC(=O)[C@H](Cc1ccccc1)NC(=O)[C@H](Cc1c[nH]cn1)NC(=O)[C@H](C)NC(=O)[C@H](CC(C)C)NC(=O)[C@H](CCCNC(=N)N)NC(=O)[C@H](CCC(N)=O)NC(=O)[C@@H](NC(=O)[C@H](C)NC(=O)[C@@H]1CSSC[C@H](NC(=O)[C@@H](N)CCCCNC(=O)COCCOCCNC(=O)CC[C@H](NC(=O)CCCCCCCCCCCCCCCCCCC(=O)O)C(=O)O)C(=O)N[C@@H](CC(N)=O)C(=O)N[C@@H]([C@@H](C)O)C(=O)N[C@@H](C)C(=O)N[C@@H]([C@@H](C)O)C(=O)N1)[C@@H](C)O)C(=O)N1CCC[C@H]1C(=O)N[C@@H](CO)C(=O)N[C@@H](CO)C(=O)N[C@H](C(=O)N[C@@H](CC(N)=O)C(=O)N[C@H](C(=O)NCC(=O)N[C@@H](Cc1c[nH]cn1)C(=O)N[C@@H](CC(N)=O)C(=O)N[C@H](C(=O)N[C@@H](Cc1ccc(O)cc1)C(N)=O)[C@@H](C)O)C(C)C)[C@@H](C)O
notes: Analogue of human amylin; also called compound 80
B3: N^ε1-[2-[2-[2-[[(4S)-4-carboxy-4-(19-carboxynonadecanoylamino)butanoyl]amino]ethoxy]ethoxy]acetyl]-[His14,Arg17,Pro21,Pro27,Pro31]-h-amylin (peptide)
peptide: K([AEEA-γGlu-C20 diacid])CNTATCATQRLAHFLRHSSPNFGAIPSSTPVGSNTY-NH2
modifications: disulfide 2-7; N-terminus assumed
SMILES: CC[C@H](C)[C@H](NC(=O)[C@H](C)NC(=O)CNC(=O)[C@H](Cc1ccccc1)NC(=O)[C@H](CC(N)=O)NC(=O)[C@@H]1CCCN1C(=O)[C@H](CO)NC(=O)[C@H](CO)NC(=O)[C@H](Cc1c[nH]cn1)NC(=O)[C@H](CCCNC(=N)N)NC(=O)[C@H](CC(C)C)NC(=O)[C@H](Cc1ccccc1)NC(=O)[C@H](Cc1c[nH]cn1)NC(=O)[C@H](C)NC(=O)[C@H](CC(C)C)NC(=O)[C@H](CCCNC(=N)N)NC(=O)[C@H](CCC(N)=O)NC(=O)[C@@H](NC(=O)[C@H](C)NC(=O)[C@@H]1CSSC[C@H](NC(=O)[C@@H](N)CCCCNC(=O)COCCOCCNC(=O)CC[C@H](NC(=O)CCCCCCCCCCCCCCCCCCC(=O)O)C(=O)O)C(=O)N[C@@H](CC(N)=O)C(=O)N[C@@H]([C@@H](C)O)C(=O)N[C@@H](C)C(=O)N[C@@H]([C@@H](C)O)C(=O)N1)[C@@H](C)O)C(=O)N1CCC[C@H]1C(=O)N[C@@H](CO)C(=O)N[C@@H](CO)C(=O)N[C@H](C(=O)N1CCC[C@H]1C(=O)N[C@H](C(=O)NCC(=O)N[C@@H](CO)C(=O)N[C@@H](CC(N)=O)C(=O)N[C@H](C(=O)N[C@@H](Cc1ccc(O)cc1)C(N)=O)[C@@H](C)O)C(C)C)[C@@H](C)O
notes: Analogue of human amylin; also called compound 61
B4: N^ε1-[2-[2-[2-[[(4S)-4-carboxy-4-(19-carboxynonadecanoylamino)butanoyl]amino]ethoxy]ethoxy]acetyl]-[Lys14,Arg17,Pro21,Pro27,Pro31]-h-amylin (peptide)
peptide: K([AEEA-γGlu-C20 diacid])CNTATCATQRLAKFLRHSSPNFGAIPSSTPVGSNTY-NH2
modifications: disulfide 2-7; N-terminus assumed
SMILES: CC[C@H](C)[C@H](NC(=O)[C@H](C)NC(=O)CNC(=O)[C@H](Cc1ccccc1)NC(=O)[C@H](CC(N)=O)NC(=O)[C@@H]1CCCN1C(=O)[C@H](CO)NC(=O)[C@H](CO)NC(=O)[C@H](Cc1c[nH]cn1)NC(=O)[C@H](CCCNC(=N)N)NC(=O)[C@H](CC(C)C)NC(=O)[C@H](Cc1ccccc1)NC(=O)[C@H](CCCCN)NC(=O)[C@H](C)NC(=O)[C@H](CC(C)C)NC(=O)[C@H](CCCNC(=N)N)NC(=O)[C@H](CCC(N)=O)NC(=O)[C@@H](NC(=O)[C@H](C)NC(=O)[C@@H]1CSSC[C@H](NC(=O)[C@@H](N)CCCCNC(=O)COCCOCCNC(=O)CC[C@H](NC(=O)CCCCCCCCCCCCCCCCCCC(=O)O)C(=O)O)C(=O)N[C@@H](CC(N)=O)C(=O)N[C@@H]([C@@H](C)O)C(=O)N[C@@H](C)C(=O)N[C@@H]([C@@H](C)O)C(=O)N1)[C@@H](C)O)C(=O)N1CCC[C@H]1C(=O)N[C@@H](CO)C(=O)N[C@@H](CO)C(=O)N[C@H](C(=O)N1CCC[C@H]1C(=O)N[C@H](C(=O)NCC(=O)N[C@@H](CO)C(=O)N[C@@H](CC(N)=O)C(=O)N[C@H](C(=O)N[C@@H](Cc1ccc(O)cc1)C(N)=O)[C@@H](C)O)C(C)C)[C@@H](C)O
notes: Analogue of human amylin; also called compound 74
B5: N^ε1-[2-[2-[2-[[(4S)-4-carboxy-4-(19-carboxynonadecanoylamino)butanoyl]amino]ethoxy]ethoxy]acetyl]-[His14,Arg17,Pro21,Pro27,Pro34]-h-amylin (peptide)
peptide: K([AEEA-γGlu-C20 diacid])CNTATCATQRLAHFLRHSSPNFGAIPSSTNVGPNTY-NH2
modifications: disulfide 2-7; N-terminus assumed
SMILES: CC[C@H](C)[C@H](NC(=O)[C@H](C)NC(=O)CNC(=O)[C@H](Cc1ccccc1)NC(=O)[C@H](CC(N)=O)NC(=O)[C@@H]1CCCN1C(=O)[C@H](CO)NC(=O)[C@H](CO)NC(=O)[C@H](Cc1c[nH]cn1)NC(=O)[C@H](CCCNC(=N)N)NC(=O)[C@H](CC(C)C)NC(=O)[C@H](Cc1ccccc1)NC(=O)[C@H](Cc1c[nH]cn1)NC(=O)[C@H](C)NC(=O)[C@H](CC(C)C)NC(=O)[C@H](CCCNC(=N)N)NC(=O)[C@H](CCC(N)=O)NC(=O)[C@@H](NC(=O)[C@H](C)NC(=O)[C@@H]1CSSC[C@H](NC(=O)[C@@H](N)CCCCNC(=O)COCCOCCNC(=O)CC[C@H](NC(=O)CCCCCCCCCCCCCCCCCCC(=O)O)C(=O)O)C(=O)N[C@@H](CC(N)=O)C(=O)N[C@@H]([C@@H](C)O)C(=O)N[C@@H](C)C(=O)N[C@@H]([C@@H](C)O)C(=O)N1)[C@@H](C)O)C(=O)N1CCC[C@H]1C(=O)N[C@@H](CO)C(=O)N[C@@H](CO)C(=O)N[C@H](C(=O)N[C@@H](CC(N)=O)C(=O)N[C@H](C(=O)NCC(=O)N1CCC[C@H]1C(=O)N[C@@H](CC(N)=O)C(=O)N[C@H](C(=O)N[C@@H](Cc1ccc(O)cc1)C(N)=O)[C@@H](C)O)C(C)C)[C@@H](C)O
notes: Analogue of human amylin; also called compound 68

Biological target: T1, rat calcitonin receptor
Assay: ratio of binding IC50s: rat calcitonin receptor / rat amylin receptor (reference)

Row | Binder | Ratio rCT/rAmylin binding
1 | B1 | 94.3
2 | B2 | 36.2
3 | B3 | 39.7
4 | B4 | 22.3
5 | B5 | 122

Biological target: T2, human calcitonin receptor
Assay: ratio of binding IC50s: human calcitonin receptor / human amylin receptor (reference)
Summary of the method: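 Competition binding by SPA uses membrane preparations (35 ng/μL final) in pH 7.4 Hepes buffer with 1 mM CaCl2 and 5 mM MgCl₂. Incubation lasts 120 min at 25° C, and IC₅₀ comes from one-site fitting.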

Row | Binder | Ratio hCT/hAmylin binding
6 | B1 | 120
7 | B2 | 68.1
8 | B3 | 66.7
9 | B4 | 101
10 | B5 | 64.4

Biological target: T1, rat calcitonin receptor
Assay: SPA competition vs 125I-calcitonin, membranes of BHK cells with rat calcitonin receptor (Assay VIII)

Row | Binder | IC50
11 | B1 | 477 nM
12 | B2 | 60.4 nM
13 | B3 | 33.4 nM
14 | B4 | 109 nM
15 | B5 | 28.5 nM

Biological target: T3, rat amylin receptor (rat calcitonin …)
Assay: SPA competition vs 125I-rat amylin, membranes of BHK cells with rat calcitonin receptor + rat RAMP3 (Assay VI)

Row | Binder | IC50
16 | B1 | 5.05 nM
17 | B2 | 1.67 nM
18 | B3 | 0.842 nM
19 | B4 | 4.89 nM
20 | B5 | 0.234 nM
